Measurements: IntAct's records for PubMed 31515488

B1: Keratin-associated protein 26-1 (Homo sapiens), Q6PEX3 (parent)
chain: MSCPNYCSGNSNSGSLRTSRHIPLTSIDLCPTSVSCGDVLYLPTSSQDHTWVTDNCQETCGEPTSCQPVHCETGNLETSCGSSTAYYVPRPCQGSSFLPASFFSSSCLPVSCRPQRYVSSGCRPLRPLLNSYQPIGDCVPNAYRPQFCLSKSCQPQNLLTSGCQPSSCLAYRPQSLHVVSSSLRPLGPLFSGCQPLTHVFSTCRPSCSGL
B2: Four and a half LIM domains protein 2 (Homo sapiens), Q14192 (parent)
chain: MTERFDCHHCNESLFGKKYILREESPYCVVCFETLFANTCEECGKPIGCDCKDLSYKDRHWHEACFHCSQCRNSLVDKPFAAKEDQLLCTDCYSNEYSSKCQECKKTIMPGTRKMEYKGSSWHETCFICHRCQQPIGTKSFIPKDNQNFCVPCYEKQHAMQCVQCKKPITTGGVTYREQPWHKECFVCTACRKQLSGQRFTARDDFAYCLNCFCDLYAKKCAGCTNPISGLGGTKYISFEERQWHNDCFNCKKCSLSLVGRGFLTERDDILCPDCGKDI
partner: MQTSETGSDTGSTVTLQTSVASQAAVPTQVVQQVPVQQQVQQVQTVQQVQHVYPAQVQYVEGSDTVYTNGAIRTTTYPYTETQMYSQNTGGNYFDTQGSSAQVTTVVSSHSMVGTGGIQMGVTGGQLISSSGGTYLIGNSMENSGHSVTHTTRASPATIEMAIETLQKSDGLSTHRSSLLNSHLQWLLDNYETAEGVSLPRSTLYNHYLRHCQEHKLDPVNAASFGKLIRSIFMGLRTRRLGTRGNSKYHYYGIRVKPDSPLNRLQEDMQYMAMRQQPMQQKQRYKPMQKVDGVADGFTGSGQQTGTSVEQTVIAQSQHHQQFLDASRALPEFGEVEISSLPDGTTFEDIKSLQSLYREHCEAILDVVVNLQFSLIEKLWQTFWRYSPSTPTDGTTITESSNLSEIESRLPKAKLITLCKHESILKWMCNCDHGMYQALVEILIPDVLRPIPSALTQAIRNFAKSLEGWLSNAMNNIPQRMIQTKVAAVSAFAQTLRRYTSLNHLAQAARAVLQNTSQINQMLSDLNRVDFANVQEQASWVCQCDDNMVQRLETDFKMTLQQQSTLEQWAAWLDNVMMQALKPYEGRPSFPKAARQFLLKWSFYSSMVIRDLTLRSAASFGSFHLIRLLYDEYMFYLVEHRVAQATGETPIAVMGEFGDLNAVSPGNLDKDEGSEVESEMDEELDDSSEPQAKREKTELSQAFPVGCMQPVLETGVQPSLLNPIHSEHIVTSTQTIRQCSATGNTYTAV
B3: 6-pyruvoyl tetrahydrobiopterin synthase (Homo sapiens), Q03393 (parent)
chain: MSTEGGGRRCQAQVSRRISFSASHRLYSKFLSDEENLKLFGKCNNPNGHGHNYKVVVTVHGEIDPATGMVMNLADLKKYMEEAIMQPLDHKNLDMDVPYFADVVSTTENVAVYIWDNLQKVLPVGVLYKVKVYETDNNIVVYKGE
B4: MIF4G domain-containing protein (Homo sapiens), A9UHW6 (parent)
chain: MGEPSREEYKIQSFDAETQQLLKTALKDPGAVDLEKVANVIVDHSLQDCVFSKEAGRMCYAIIQAESKQAGQSVFRRGLLNRLQQEYQAREQLRARSLQGWVCYVTFICNIFDYLRVNNMPMMALVNPVYDCLFRLAQPDSLSKEEEVDCLVLQLHRVGEQLEKMNGQRMDELFVLIRDGFLLPTGLSSLAQLLLLEIIEFRAAGWKTTPAAHKYYYSEVSD
partner: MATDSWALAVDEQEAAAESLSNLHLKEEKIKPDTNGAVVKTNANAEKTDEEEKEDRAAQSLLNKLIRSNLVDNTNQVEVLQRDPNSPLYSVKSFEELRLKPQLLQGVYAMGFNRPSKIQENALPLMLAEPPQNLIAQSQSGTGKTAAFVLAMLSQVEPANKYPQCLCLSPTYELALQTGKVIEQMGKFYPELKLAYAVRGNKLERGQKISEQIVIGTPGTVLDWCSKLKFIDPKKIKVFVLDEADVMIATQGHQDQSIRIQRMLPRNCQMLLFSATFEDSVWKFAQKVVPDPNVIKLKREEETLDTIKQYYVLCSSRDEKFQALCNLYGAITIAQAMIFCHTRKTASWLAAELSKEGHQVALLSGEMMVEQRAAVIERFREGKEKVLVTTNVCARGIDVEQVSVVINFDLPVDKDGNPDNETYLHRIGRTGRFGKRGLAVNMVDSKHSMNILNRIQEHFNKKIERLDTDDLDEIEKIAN
B5: STAM-binding protein (Homo sapiens), O95630 (parent)
chain: MSDHGDVSLPPEDRVRALSQLGSAVEVNEDIPPRRYFRSGVEIIRMASIYSEEGNIEHAFILYNKYITLFIEKLPKHRDYKSAVIPEKKDTVKKLKEIAFPKAEELKAELLKRYTKEYTEYNEEKKKEAEELARNMAIQQELEKEKQRVAQQKQQQLEQEQFHAFEEMIRNQELEKERLKIVQEFGKVDPGLGGPLVPDLEKPSLDVFPTLTVSSIQPSDCHTTVRPAKPPVVDRSLKPGALSNSESIPTIDGLRHVVVPGRLCPQFLQLASANTARGVETCGILCGKLMRNEFTITHVLIPKQSAGSDYCNTENEEELFLIQDQQGLITLGWIHTHPTQTAFLSSVDLHTHCSYQMMLPESVAIVCSPKFQETGFFKLTDHGLEEISSCRQKGFHPHSKDPPLFCSCSHVTVVDRAVTITDLR
B6: Coiled-coil domain-containing protein 92 (Homo sapiens), Q53HC0 (parent)
chain: MTSPHFSSYDEGPLDVSMAATNLENQLHSAQKNLLFLQREHASTLKGLHSEIRRLQQHCTDLTYELTVKSSEQTGDGTSKSSELKKRCEELEAQLKVKENENAELLKELEQKNAMITVLENTIKEREKKYLEELKAKSHKLTLLSSELEQRASTIAYLTSQLHAAKKKLMSSSGTSDASPSGSPVLASYKPAPPKDKLPETPRRRMKKSLSAPLHPEFEEVYRFGAESRKLLLREPVDAMPDPTPFLLARESAEVHLIKERPLVIPPIASDRSGEQHSPAREKPHKAHVGVAHRIHHATPPQAQPEVKTLAVDQVNGGKVVRKHSGTDRTV
partner: B2 chain
B7: U6 snRNA-associated Sm-like protein LSm7 (Homo sapiens), Q9UK45 (parent)
chain: MADKEKKKKESILDLSKYIDKTIRVKFQGGREASGILKGFDPLLNLVLDGTIEYMRDPDDQYKLTEDTRQLGLVVCRGTSVVLICPQDGMEAIPNPFIQQQDA

Variants of: B1
Conditions: with grn_human GRN

| Variant | effect of a mutation on the interaction |
| --- | --- |
| S26Y | disrupting interaction strength |

Variants of: B1
Conditions: with ccnjl_human CCNJL

| Variant | effect of a mutation on the interaction |
| --- | --- |
| S26Y | with no effect |

Variants of: B2
Conditions: with rfx3_human RFX3, P48380

| Variant | effect of a mutation on the interaction |
| --- | --- |
| A37S | with no effect |
| N95K | with no effect |

Variants of: B3
Conditions: with ntaq1_human NTAQ1, Q96HA8

| Variant | effect of a mutation on the interaction |
| --- | --- |
| P123S | disrupting interaction strength |
| R25Q | disrupting interaction strength |
| T67M | disrupting interaction strength |
| T106M | disrupting interaction strength |
| R9C | disrupting interaction strength |

Variants of: B3
Conditions: with c1qc_human C1QC

| Variant | effect of a mutation on the interaction |
| --- | --- |
| R25Q | disrupting interaction strength |
| T106M | disrupting interaction strength |
| R9C | disrupting interaction strength |

Variants of: B3
Conditions: with fxr2_human FXR2, P51116

| Variant | effect of a mutation on the interaction |
| --- | --- |
| R25Q | disrupting interaction strength |
| T106M | disrupting interaction strength |
| R9C | disrupting interaction strength |

Variants of: B3
Conditions: with sdcb1_human SDCBP

| Variant | effect of a mutation on the interaction |
| --- | --- |
| T106M | disrupting interaction strength |

Variants of: B4
Conditions: with dd19b_human DDX19B

| Variant | effect of a mutation on the interaction |
| --- | --- |
| E160K | with no effect |

Variants of: B5
Conditions: with grb2_human GRB2, P62993
Chain of grb2_human GRB2, P62993 (P62993 whole entry, looked up): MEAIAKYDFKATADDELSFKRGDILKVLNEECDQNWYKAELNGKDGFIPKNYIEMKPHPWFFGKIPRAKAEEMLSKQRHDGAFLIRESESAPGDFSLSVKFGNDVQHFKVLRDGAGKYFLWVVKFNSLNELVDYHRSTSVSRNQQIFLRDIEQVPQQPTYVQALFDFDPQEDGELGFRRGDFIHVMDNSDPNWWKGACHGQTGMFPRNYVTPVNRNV

| Variant | effect of a mutation on the interaction |
| --- | --- |
| Q155H | disrupting interaction strength |
| E167K | disrupting interaction strength |
| R255H | with no effect |

Variants of: B5
Conditions: with stam2_human STAM2, O75886

| Variant | effect of a mutation on the interaction |
| --- | --- |
| Q155H | disrupting interaction strength |
| R255H | with no effect |

Variants of: B6
Conditions: with fhl2_human FHL2, Q14192

| Variant | effect of a mutation on the interaction |
| --- | --- |
| S70C | with no effect |

Variants of: B7
Conditions: with lsm5_human LSM5, Q9Y4Y9
Chain of lsm5_human LSM5, Q9Y4Y9 (Q9Y4Y9 whole entry): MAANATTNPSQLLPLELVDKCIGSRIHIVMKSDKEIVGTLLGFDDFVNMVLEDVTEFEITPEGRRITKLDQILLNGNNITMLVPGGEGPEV

| Variant | effect of a mutation on the interaction |
| --- | --- |
| G78A | with no effect |
